Stoichiometry N data for one substance are collected here from publication doi:10.64898/2025.12.30.697075.

The target of assay [1] is pennycress (Thlaspi arvense) biotin carboxylase (BC) subunit of the plastid heteromeric acetyl-CoA carboxylase (Thlaspi arvense (field pennycress)). In words: cryo-EM structure.
For assay [2] the target is unchanged. Nature of the assay: cross-linking.

Where “and” joins values, the source holds several entries; their conditions need not be identical. Identical values can stand only once.

With “pennycress (Thlaspi arvense) biotin carboxylase (BC) subunit of the plastid heteromeric acetyl-CoA carboxylase (enzyme)”, the stoichiometry N was 2 and 4 and 6 in assay [1]; 2 and 4 in assay [2].
